Common to all, as to experiment: G assay
For test [1], the target named is GST-PSD95 PDZ domain 2 (human).
Test [2] deals with GST-PSD95 PDZ domain 1 (human).
The target in test [3] is GST-PSD95 PDZ domain 3 (human).
For test [4], the target named is GST-NOS1 (nNOS) PDZ domain (human).

The results in this text go back to US20110039758A1.

Several values for one entry are separate records, joined by “and”; a condition that tells them apart may be missing. Equal values may be shown once. Ends that are not written are not given here.

With QISPGGLEPPSEKHFRETEV (modifications not checked) [20 C-terminal amino acids from TAX], the Average OD in test [1] was determined as 2.39 OD.

As for YGRKKRRQRRRKLSSIESDV (not fully specified) [[…] (Tat transporter fused to the C-terminal 9 amino acids of NMDA Receptor 2B)], the Average OD is 3.87 OD and 2.13 OD and 1.4 OD in test [2]; 4.06 OD and 3.53 OD and 3.1 OD in test [1].

For RSGATIPLVGQDIIDLQTEV (modifications not checked), in test [1], the Average OD came out at 1.23 OD.

On to DGGARTEDEVQSYPSKHDYV (modifications not checked), for which the values for the Average OD in test [2] and in test [3] were 1.25 OD and 1.05 OD, respectively.

In the case of VPSDNIDSQGRNASINDSLL (modifications not checked) [beta-2 Adrenergic Receptor PL peptide], the Average OD in test [4] was 0.85 OD.

Regarding LNSSSNRRVYKKMPSIESAV (modifications not checked), the Average OD in test [1] was 3.37 OD and 2.67 OD and 2.29 OD.

With TTNNNPNSAVNIKKIFTDV (modifications not checked) [KV1.3 PL peptide], the Average OD is 0.67 OD in test [4]; 2.28 OD and 1.12 OD in test [2]; 1.06 OD in test [1]; 1 OD in test [3].

Consider QDFRRAFRRILARPWTQTAW (modifications not checked) [a-2B Adrenergic receptor PL peptide], for which the Average OD in test [4] is 3.54 OD and 2.52 OD; in test [2], 1.59 OD and 0.87 OD; in test [3] it was 3.74 OD and 2.98 OD.

With LGYSIPSRSGASGLDKRDYV (modifications not checked) [claudin 9 PL peptide], the figures for the Average OD in test [4] and in test [2] were 0.51 OD and 0.82 OD, respectively.

In the case of HHLVAQRDIRQFQLQHWLAI (modifications not checked) [noradrenaline transporter PL peptide], the Average OD was 1.08 OD in test [4]; 0.82 OD and 0.7 OD in test [3].

On to PYSELNYETSHYPASPDSWV (modifications not checked) [catenin-delta 2 PL peptide], for which the values for the Average OD in test [4] and in test [2] were 2.1 OD and 1.18 OD, respectively.

Consider KAGYRAPRSYPKSNSSKEYV (modifications not checked) [claudin 7 PL peptide], for which the Average OD in test [4] is 1.01 OD and 0.93 OD; in test [2] it was 1.28 OD and 1.08 OD; in test [3], 0.92 OD and 0.86 OD.

On to HDFRRAFKKILARGDRKRIV (modifications not checked) [alpha-2A Adrenergic receptor PL peptide], for which the Average OD in test [4] is 0.96 OD and 0.73 OD.

LAVLAYSITLVMLWSIWQYA (modifications not checked) [Serotonin receptor 3a PL peptide]: the Average OD in test [4] is 1.02 OD.

For the molecule SFTSILTCHQRRTQRKETVA (modifications not checked) [GluR5-2 (rat) PL peptide], the Average OD in test [4] was 0.65 OD; in test [2] it was 3.12 OD and 2.26 OD; in test [3] it was 4 OD.

For the molecule KTMPAAMYRLLTAQEQPVYI (modifications not checked) [MINT-1 PL peptide], the Average OD in test [4] is 4 OD and 3.76 OD.

Take SSPDSSYQGKGFVMSRAMYV (modifications not checked) [Nectin 2 PL peptide]: the Average OD in test [4] turned out to be 0.54 OD; in test [2], 1.01 OD; in test [3], 0.91 OD.

In the case of SSKSKSSEESQTFFGLYKL (modifications not checked) [Fas Ligand PL peptide], the Average OD in test [4] is 1.99 OD and 1.93 OD; in test [2] it was 1.23 OD; in test [3], 1.07 OD.

Regarding SYPTPRPYPKPAPSSGKDYV (modifications not checked) [claudin 1 PL peptide], the Average OD was found to be 0.9 OD in test [4], 0.95 OD in test [2] and 0.85 OD in test [3].

In test [4], AWDDSARAAGGQGLHVTAL (modifications not checked) [LPAP PL peptide] had an Average OD of 0.77 OD.

On to RELVDRGEVRQFTLRHWLKV (modifications not checked) [Dopamine transporter PL peptide], for which the Average OD in test [4] is 1.38 OD and 1.27 OD and 1.1 OD.

TGSALQAWRHTSRQATESTV (modifications not checked): the figures for the Average OD in test [2] and in test [3] were 3.86 OD and 0.78 OD, respectively.

In turn, PIPAGGCTFSGIFPTLTSPL (modifications not checked) [KIAA 1481 PL peptide] registered an Average OD in test [4] of 0.71 OD.

Turning to PGQPPKVKSEFNSYSLTGYV (modifications not checked) [claudin 2 PL peptide], the Average OD was 0.69 OD in test [4]; 1.03 OD and 0.85 OD in test [2]; 0.79 OD in test [3].

Take RIAYSLLGLKDQVNTVGIPI (modifications not checked) [ephrin A2 PL peptide]: the Average OD in test [4] is 1.83 OD and 4 OD.

Consider KDITSDSENSNFRNEIQSLV (modifications not checked), for which the Average OD in test [1] amounted to 1.35 OD.

SSSQSLESDGSYQKPSYIL (modifications not checked) [CD62E PL peptide] gave an Average OD in test [4] of 0.5 OD.

Consider GRWTGRAMSAWKPTRRETEV (modifications not checked) [HPV E6 #35 (cysteine-free) PL peptide], for which the Average OD in test [4] is 0.74 OD and 0.62 OD; in test [2] it was 4 OD and 3.08 OD; in test [1] it was 2.82 OD; in test [3] it was 4 OD.

Consider DFRPSFKHILFRRARRGFRQ (modifications not checked) [alpha-2C Adrenergic receptor PL peptide], for which the Average OD in test [4] was 3.02 OD and 2.09 OD; in test [2], 2.05 OD and 1.26 OD; in test [3], 1.72 OD and 1.19 OD.

On to VHKVRNKFKAKCSLCRLYII (modifications not checked) [HPV-E6 #63 PL peptide], for which the Average OD in test [4] was 2.55 OD and 4 OD; in test [2] it was 4 OD and 2.67 OD; in test [1] it was 4 OD and 2.62 OD; in test [3], 4 OD.

Turning to HSCCNRARQERLQRRRETQV (modifications not checked) [HPV-E6 #18 PL peptide], in test [4], the Average OD came to 2.14 OD.

LNSCSNRRVYKKMPSIESDV (modifications not checked) [NMDAR2A C-terminal 20mer peptide]: the Average OD in test [2] was 4.07 OD and 4 OD.

SPQPDSTDNDDYDDISAA (modifications not checked) [CD6 PL peptide] showed an Average OD in test [4] of 0.59 OD.

As to VDPNSPAAKKKYVSYNNLVI (modifications not checked) [GLUR7 (metabotropic glutamate receptor) PL peptide], the Average OD in test [4] is 0.75 OD and 0.64 OD and 0.59 OD; in test [2] it was 0.85 OD; in test [3], 0.82 OD.

On to VGTLLLERVIFPSVKIATLV (modifications not checked) [AdenoE4 typ9 PL peptide], for which the Average OD in test [4] was 3.64 OD and 2.73 OD and 4 OD.

With TQGFPGPATWRRISSLESEV (modifications not checked) [NMDA Glutamate Receptor 2C (cysteine-free) C-terminal 20mer peptide], the Average OD in test [4] is 0.49 OD; in test [1] it was 3.56 OD and 2.89 OD and 2.07 OD; in test [3], 1.46 OD and 1.17 OD.

With ELLQFCRTPNPALKNGQYWV (modifications not checked) [CSPG4 (chondroitin sulfae proteoglycan 4, melanoma-associated) PL peptide], the Average OD in test [4] was 2.43 OD and 1.27 OD.

Turning to ALVLIAFCIIRRRPSAYQAL (modifications not checked) [CD68 PL peptide], the Average OD in test [4] stood at 0.67 OD.

On to GGDLGTRRGSAHFSSLESEV (modifications not checked) [NMDAR2D C-terminal 20mer peptide], for which the Average OD in test [2] was 0.86 OD and 0.77 OD; in test [1] it was 3.11 OD and 2.22 OD and 1.31 OD.
